For the experiment, the target named is T1, 호산구 유래 신경독(eosinophil-derived neurotoxin, EDN) (UniProt P10153 28-161).
T1 construct: also called 항원 EDN
T1 sequence (looked up): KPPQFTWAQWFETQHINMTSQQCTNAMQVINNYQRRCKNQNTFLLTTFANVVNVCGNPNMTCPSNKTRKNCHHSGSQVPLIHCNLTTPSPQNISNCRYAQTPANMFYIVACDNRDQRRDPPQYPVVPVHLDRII
The experiment in a line: BLI (Octet), AR2G amine-reactive biosensor, antibody immobilised, EDN as analyte at 12.5, 6.25, 3.13, 1.56 and 0.78 nM, 1X kinetic buffer.

B1: 단일클론항체 Anti-6C5 (antibody, V domains shown)
VH: EVQLQQPGPELVKPGASVKISCKASAYSFTDYIMLWVKQSHGKSLEWIGNIHPYYGSSSYNLKFKGKATLTVDKSSSTAYMQLNSLTSEDSAVYYCAREVGFGKGGFDYWGQGTTLTVSS
VL: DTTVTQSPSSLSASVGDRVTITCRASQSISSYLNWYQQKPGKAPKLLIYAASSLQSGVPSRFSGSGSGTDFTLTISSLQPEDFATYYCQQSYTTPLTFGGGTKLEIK
notes: Whole monoclonal antibody produced from hybridoma cell line 6C5 (culture supernatant); The heavy chain ran at 50 kDa on reducing SDS-PAGE; also called Anti-6C5(6C5)
For the molecule B1, the Kd was found to be 0.0576 nM.

(Values after patent KR20210073785A (dated 2021).)
